Measurements taken from paper doi:10.1101/2024.03.26.586731.

Legend:
Assay in all cases: high-speed atomic force microscopy
IgG1-DNP-E430G (human) = molecular target: IgG1-DNP-E430G (human)
IgG2-DNP-E430G (human) = molecular target: IgG2-DNP-E430G (human)
IgG3-DNP-E430G (human) = molecular target: IgG3-DNP-E430G (human)
IgG4-DNP-E430G (human) = molecular target: IgG4-DNP-E430G (human)

IgG1-DNP-E430G (antibody)
stoichiometry N (IgG1-DNP-E430G (human)): < 6

IgG2-DNP-E430G (antibody)
stoichiometry N (IgG2-DNP-E430G (human)): < 6

IgG3-DNP-E430G (antibody)
stoichiometry N (IgG3-DNP-E430G (human)): < 6

IgG4-DNP-E430G (antibody)
stoichiometry N (IgG4-DNP-E430G (human)): < 6
